In patent EP3932948A1 (Sunshine Guojian Pharmaceutical (Shanghai) Co., Ltd., dated 2022):

Columns and labels:
[1] = molecular target: T1, LAG-3 on the cell surface of SEA-activated human PBMC (activated T cells) (human, UniProt P18627 23-525); experiment: cell-based or functional assay
T1 sequence (looked up): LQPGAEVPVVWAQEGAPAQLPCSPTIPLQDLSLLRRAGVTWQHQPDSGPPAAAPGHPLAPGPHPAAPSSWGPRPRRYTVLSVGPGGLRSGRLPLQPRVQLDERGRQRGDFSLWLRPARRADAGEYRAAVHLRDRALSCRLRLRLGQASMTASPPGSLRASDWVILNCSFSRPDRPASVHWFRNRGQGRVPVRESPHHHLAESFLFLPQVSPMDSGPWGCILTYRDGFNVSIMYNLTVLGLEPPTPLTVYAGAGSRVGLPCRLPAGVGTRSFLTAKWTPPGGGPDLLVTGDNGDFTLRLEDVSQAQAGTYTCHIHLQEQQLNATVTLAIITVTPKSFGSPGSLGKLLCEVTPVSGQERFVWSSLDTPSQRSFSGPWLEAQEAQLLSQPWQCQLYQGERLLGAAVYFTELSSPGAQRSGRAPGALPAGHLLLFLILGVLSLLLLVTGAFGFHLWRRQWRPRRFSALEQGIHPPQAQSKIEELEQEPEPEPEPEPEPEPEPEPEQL

[2] = molecular target: T2, LAG-3-ECD-His (LAG-3 extracellular segment with His tag, purchased from Sino Biological Inc.) (UniProt P18627 23-450); experiment: ELISA, plate coated with LAG-3-ECD-His (10 ng/well), anti-human IgG (Fc) detection
T2 construct: extracellular domain; not shown: His tag
T2 sequence (looked up): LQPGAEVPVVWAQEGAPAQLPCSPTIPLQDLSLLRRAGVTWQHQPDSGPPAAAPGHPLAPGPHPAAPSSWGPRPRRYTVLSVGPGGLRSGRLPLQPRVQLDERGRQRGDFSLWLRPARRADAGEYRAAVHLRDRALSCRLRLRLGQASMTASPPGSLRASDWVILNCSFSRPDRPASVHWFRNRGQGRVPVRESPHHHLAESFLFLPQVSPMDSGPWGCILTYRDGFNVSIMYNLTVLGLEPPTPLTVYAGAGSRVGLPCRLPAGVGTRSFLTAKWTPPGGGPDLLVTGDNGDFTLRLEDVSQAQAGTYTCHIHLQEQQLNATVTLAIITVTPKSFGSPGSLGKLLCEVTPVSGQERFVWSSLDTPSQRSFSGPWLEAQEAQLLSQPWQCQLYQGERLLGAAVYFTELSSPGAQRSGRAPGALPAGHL

[3] = molecular target: T3, full-length human LAG-3 on CHO-S cells (CHO-S-LAG-3) (human, UniProt P18627 23-525); experiment: flow cytometry, blocking of Biotin-FGL1-hFc (2 ug/ml) binding to CHO-S-LAG-3 cells
T3 construct: whole, on cells
T3 sequence (looked up): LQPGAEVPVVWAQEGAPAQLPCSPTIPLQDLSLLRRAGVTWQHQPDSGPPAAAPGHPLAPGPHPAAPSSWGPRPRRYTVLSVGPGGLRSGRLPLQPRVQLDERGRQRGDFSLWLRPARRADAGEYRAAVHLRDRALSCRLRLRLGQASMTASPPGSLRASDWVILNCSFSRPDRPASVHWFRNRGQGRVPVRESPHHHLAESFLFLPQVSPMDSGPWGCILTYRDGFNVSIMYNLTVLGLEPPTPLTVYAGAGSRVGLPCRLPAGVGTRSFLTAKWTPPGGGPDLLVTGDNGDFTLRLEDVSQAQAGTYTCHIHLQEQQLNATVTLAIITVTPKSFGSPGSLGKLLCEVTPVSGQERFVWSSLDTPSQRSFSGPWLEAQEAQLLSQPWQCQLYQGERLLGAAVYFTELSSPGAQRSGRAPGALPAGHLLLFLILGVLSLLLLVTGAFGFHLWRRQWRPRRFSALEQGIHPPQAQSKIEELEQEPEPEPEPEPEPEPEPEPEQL

[4] = molecular target: T4, recombinant LAG-3 (purchased from SinoBiological, Cat. No.: 16498-H08H) (human, UniProt P18627 23-450); experiment: SPR (Biacore 8K), antibody captured on Protein A chip, recombinant LAG-3 as analyte
T4 construct: also called human LAG-3
T4 sequence (looked up): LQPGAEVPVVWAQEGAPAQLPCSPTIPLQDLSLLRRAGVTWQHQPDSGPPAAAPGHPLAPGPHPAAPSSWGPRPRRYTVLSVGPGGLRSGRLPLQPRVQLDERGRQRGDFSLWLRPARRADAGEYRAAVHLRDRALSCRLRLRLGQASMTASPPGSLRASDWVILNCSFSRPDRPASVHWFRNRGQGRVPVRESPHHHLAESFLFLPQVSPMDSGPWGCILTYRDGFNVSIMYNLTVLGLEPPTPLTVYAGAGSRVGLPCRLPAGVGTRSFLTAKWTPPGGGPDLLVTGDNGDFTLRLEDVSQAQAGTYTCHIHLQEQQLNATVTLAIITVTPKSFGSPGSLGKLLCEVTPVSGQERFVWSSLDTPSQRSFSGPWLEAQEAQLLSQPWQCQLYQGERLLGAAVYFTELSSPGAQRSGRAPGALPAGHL

[5] = molecular target: T1, LAG-3 on the cell surface of …; experiment: flow cytometry, biotinylated antibody on SEA-activated human PBMC, PE-Streptavidin detection

B1: 5E7-Hu-IgG4 (antibody, V domains shown)
VH: EVQLVESGGGLVKPGGSLRLSCAASGFTFSDDYMAWFRQAPGKRLEWVASISHGGDYIYYADNLKGRFTISRDNAKNSLYLQMNSLRAEDTAVYFCSRDRRSIDYWGQGTLVTVSS
VL: DIQMTQSPSSLSASVGDRVTITCRASQDISNYLSWYQQKPGKTIKLLIYYTSRLHSGVPSRFSGSGSGTDYTFTISSLQPEDIATYFCQQGKTLPYTFGQGTKVEIKR
modifications: Biotinylated with NHS-biotin only for the flow cytometry of Example 7 (positions not defined).
notes: also called humanized antibody No. 5E7; 5E7-Hu-IgG4-HC + 5E7-Hu-LC
Question: With B1 as the binder, how does the “EC50 of enhancing the secretion of IL-2 by SEA-stimulated PBMC (Fig. 3A)” value [1] read?
Answer: 0.0781 µg/mL

Question: What about the “EC50 of enhancing the secretion of IL-2 by SEA-stimulated PBMC (Fig. 3B)” value [1] of the same binder?
Answer: 0.00307 µg/mL

Question: What about the EC50 [2] of the same binder?
Answer: 0.00908 µg/mL

Question: What about the IC50 [3] of the same binder?
Answer: 0.0977 µg/mL

Question: What about the Kd [4] of the same binder?
Answer: 4.17 pM

Question: What about the koff [4] of the same binder?
Answer: 1.84e-05 s⁻¹

Question: What about the kon [4] of the same binder?
Answer: 4.41e+06 M⁻¹ s⁻¹

Question: And the EC50 [5]?
Answer: 0.0531 µg/mL
